This is an account of results in article PMC9832833, “Mitogen-activated protein kinase 14-mediated phosphorylation of MaMYB4 negatively regulates banana fruit ripening”.

The target of one data set is T1, MBP-MaMPK14 (Musa acuminata (banana), UniProt A0A804IKS6 1-366).
T1 sequence: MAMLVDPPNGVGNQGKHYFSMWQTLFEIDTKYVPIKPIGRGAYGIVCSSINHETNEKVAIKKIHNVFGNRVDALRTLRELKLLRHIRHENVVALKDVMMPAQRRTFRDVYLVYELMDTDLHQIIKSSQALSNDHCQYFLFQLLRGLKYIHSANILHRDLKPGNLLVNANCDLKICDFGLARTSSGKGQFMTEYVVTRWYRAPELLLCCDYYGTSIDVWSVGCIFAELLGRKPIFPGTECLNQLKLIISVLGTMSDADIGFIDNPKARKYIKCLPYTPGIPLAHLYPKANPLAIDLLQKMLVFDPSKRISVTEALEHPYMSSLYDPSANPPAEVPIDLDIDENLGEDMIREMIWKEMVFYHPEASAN
As to the kind of experiment: EMSA; MBP-MaMPK14 alone; EMSA buffer not stated (kit per cited Fan et al.); kinase preincubation in 20 mM Tris-HCl, 20 mM MgCl2, 100 mM NaCl, 10 mM ATP, 2 mM DTT, 0.5 h at 30 C; pH not. To be noted: protein: recombinant; tags: MBP (N-term, pMAL-c2X); label: biotin; blunt.

The target in the next data set is GST-MaMYB4 (Musa acuminata (banana), UniProt A0A804HW33 1-241). As to the kind of experiment: EMSA; without MBP-MaMPK14; EMSA buffer not stated (kit per cited Fan et al.); kinase preincubation in 20 mM Tris-HCl, 20 mM MgCl2, 100 mM NaCl, 10 mM ATP, 2 mM DTT, 0.5 h at 30 C; pH not. The settings on record: protein: recombinant; tags: GST (N-term, pGEX-4T-1); label: biotin; blunt.
GST-MaMYB4, sequence (A0A804HW33 entry or part of it): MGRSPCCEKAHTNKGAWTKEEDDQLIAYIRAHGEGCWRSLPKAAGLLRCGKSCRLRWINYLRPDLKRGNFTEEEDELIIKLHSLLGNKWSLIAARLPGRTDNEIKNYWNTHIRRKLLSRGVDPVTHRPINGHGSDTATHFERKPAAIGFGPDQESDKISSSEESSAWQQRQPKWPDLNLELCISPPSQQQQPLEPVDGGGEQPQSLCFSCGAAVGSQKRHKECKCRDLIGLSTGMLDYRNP

B1: MaACS1 promoter probe (dsDNA)
DNA 1: CCAAAAACAGGGTAGGTGGATGGCTTACATGCTCACCTAATAATTTATTT
DNA 2: AAATAAATTATTAGGTGAGCATGTAAGCCATCCACCTACCCTGTTTTTGG
Consider B1, for which the binding result with MBP-MaMPK14 is reported as “no binding”; with GST-MaMYB4, “binds”.
